Laboratory results published in patent US10738094B2, “Peptides and combination of peptides for use in immunotherapy against ovarian cancer and other cancers” (immatics biotechnologies GmbH, priority 2015, dated 2020).

Biological target: HLA-A*02:01 (Homo sapiens, UniProt P04439, D140Y/D185E/D98H/E176V/E277Q/G131W/G231S/I119V/I121R/I166T/I218V/L300P/L318F/N151K/N90K/P208A/P217A/Q86G/Q94H/R138H/R169H/T345S)
Test: MHC binding assay (UV-ligand exchange, beta2m ELISA)
Conditions: binding to HLA-A*02:01 ranged by peptide exchange yield (UV-ligand exchange, β2m ELISA)
In short: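 UV-cleavable ligand in peptide-MHC complexes was exchanged for test peptide. Exchange yield came from an ELISA on streptavidin-captured complexes diluted 100 fold, detecting β2m with HRP anti-β2m (2 ug/ml, 1 h, 37° C.), TMB, A450.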

Substance	Peptide exchange
275 (YLVYILNEL; listed as Homo sapiens) [compound 275]	“++” (≥20% = ++)
487 (LLINSVFHV; listed as Homo sapiens) [compound 487]	“+++” (≥50 = +++)
600 (ALAAPDIVPAL; listed as Homo sapiens) [compound 600]	“+++” (≥50 = +++)
7 (SLVGLLLYL; listed as Homo sapiens) [compound 7]	“++++” (≥75% = ++++)
613 (RLLPPGAVVAV; listed as Homo sapiens) [compound 613]	“+++” (≥50 = +++)
66 (FLDENIGGVAV; listed as Homo sapiens) [compound 66]	“+++” (≥50 = +++)
349 (SLTEYLQNV; listed as Homo sapiens) [compound 349]	“++++” (≥75% = ++++)
598 (FLFPHSVLV; listed as Homo sapiens) [compound 598]	“+++” (≥50 = +++)
232 (ALLEAQDVELYL; listed as Homo sapiens) [compound 232]	“++” (≥20% = ++)
126 (VLAYFLPEA; listed as Homo sapiens) [compound 126]	“++++” (≥75% = ++++)
64 (YAAPGGLIGV; listed as Homo sapiens) [compound 64]	“++” (≥20% = ++)
157 (SLNDEVPEV; listed as Homo sapiens) [compound 157]	“++” (≥20% = ++)
590 (SLIEKLWQT; listed as Homo sapiens) [compound 590]	“++” (≥20% = ++)
104 (STMEQNFLL; listed as Homo sapiens) [compound 104]	“++++” (≥75% = ++++)
193 (QLLDADGFLNV; listed as Homo sapiens) [compound 193]	“+++” (≥50 = +++)
429 (GLVNDLARV; listed as Homo sapiens) [compound 429]	“++” (≥20% = ++)
248 (FLFPNQYVDV; listed as Homo sapiens) [compound 248]	“+++” (≥50 = +++)
218 (SALEELVNV; listed as Homo sapiens) [compound 218]	“++” (≥20% = ++)
579 (NLMEMVAQL; listed as Homo sapiens) [compound 579]	“++” (≥20% = ++)
345 (VIWKALIHL; listed as Homo sapiens) [compound 345]	“+++” (≥50 = +++)
134 (YLQELIFSV; listed as Homo sapiens) [compound 134]	“+++” (≥50 = +++)

Substance	Peptide exchange
122 (FLLAEDDIYL; listed as Homo sapiens) [compound 122]	“+++” (≥50 = +++)
456 (LLIGHLERV; listed as Homo sapiens) [compound 456]	“+++” (≥50 = +++)
471 (YLYNNMIAKI; listed as Homo sapiens) [compound 471]	“+++” (≥50 = +++)
45 (SLWQDIPDV; listed as Homo sapiens) [compound 45]	“+++” (≥50 = +++)
308 (SQYSGQLHEV; listed as Homo sapiens) [compound 308]	“+++” (≥50 = +++)
441 (ALLENPKMEL; listed as Homo sapiens) [compound 441]	“+++” (≥50 = +++)
407 (YLMDLINFL; listed as Homo sapiens) [compound 407]	“+++” (≥50 = +++)
320 (KMFEFVEPLL; listed as Homo sapiens) [compound 320]	“++++” (≥75% = ++++)
208 (KISPVTFSV; listed as Homo sapiens) [compound 208]	“+++” (≥50 = +++)
508 (ILAQEQLVVGV; listed as Homo sapiens) [compound 508]	“+++” (≥50 = +++)
469 (YLASDEITTV; listed as Homo sapiens) [compound 469]	“+++” (≥50 = +++)
485 (NVPDSFNEV; listed as Homo sapiens) [compound 485]	“+++” (≥50 = +++)
6 (VLVSDGVHSV; listed as Homo sapiens) [compound 6]	“+++” (≥50 = +++)
549 (AMLENASDIKL; listed as Homo sapiens) [compound 549]	“+++” (≥50 = +++)
588 (SLLPLSHLV; listed as Homo sapiens) [compound 588]	“+++” (≥50 = +++)
119 (FLYIGDIVSL; listed as Homo sapiens) [compound 119]	“++++” (≥75% = ++++)
611 (YLLDDGTLVV; listed as Homo sapiens) [compound 611]	“++++” (≥75% = ++++)
602 (YLLEQIKLIEV; listed as Homo sapiens) [compound 602]	“++++” (≥75% = ++++)
541 (SMLEPVPEL; listed as Homo sapiens) [compound 541]	“+++” (≥50 = +++)
256 (FLPPEHTIVYI; listed as Homo sapiens) [compound 256]	“+++” (≥50 = +++)
18 (YLVAKLVEV; listed as Homo sapiens) [compound 18]	“++” (≥20% = ++)

Results, then the substance that gave them:

Peptide exchange	Substance
“++” (≥20% = ++)	398 (KLLEEDGTIITL; listed as Homo sapiens) [compound 398]
“++” (≥20% = ++)	94 (YLIDIKTIAI; listed as Homo sapiens) [compound 94]
“++++” (≥75% = ++++)	178 (ALTEIAFVV; listed as Homo sapiens) [compound 178]
“+++” (≥50 = +++)	500 (SLMEDQVLQL; listed as Homo sapiens) [compound 500]
“+++” (≥50 = +++)	543 (GLLPTPITQQASL; listed as Homo sapiens) [compound 543]
“+++” (≥50 = +++)	225 (SLLKVLPAL; listed as Homo sapiens) [compound 225]
“++” (≥20% = ++)	226 (MLYVVPIYL; listed as Homo sapiens) [compound 226]
“++” (≥20% = ++)	176 (YLMEGSYNKVFL; listed as Homo sapiens) [compound 176]
“++” (≥20% = ++)	220 (LLQKFVPEI; listed as Homo sapiens) [compound 220]
“+++” (≥50 = +++)	296 (FMEGAIIYV; listed as Homo sapiens) [compound 296]
“+++” (≥50 = +++)	324 (FLYDEIEAEV; listed as Homo sapiens) [compound 324]
“++” (≥20% = ++)	140 (YMDAPKAAL; listed as Homo sapiens) [compound 140]
“+++” (≥50 = +++)	622 (RLLGEEVVRVLQA; listed as Homo sapiens) [compound 622]
“++++” (≥75% = ++++)	68 (SLMELPRGLFL; listed as Homo sapiens) [compound 68]
“++” (≥20% = ++)	504 (GLSDGNPSL; listed as Homo sapiens) [compound 504]
“+++” (≥50 = +++)	335 (YSLSSVVTV; listed as Homo sapiens) [compound 335]
“++++” (≥75% = ++++)	568 (TLYDIAHTPGV; listed as Homo sapiens) [compound 568]
“+++” (≥50 = +++)	383 (ALLELENSVTL; listed as Homo sapiens) [compound 383]

Peptide exchange	Substance
“+++” (≥50 = +++)	366 (RLLDMGETDLML; listed as Homo sapiens) [compound 366]
“+++” (≥50 = +++)	163 (ALDEMGDLLQL; listed as Homo sapiens) [compound 163]
“++” (≥20% = ++)	274 (SLLFSLFEA; listed as Homo sapiens) [compound 274]
“+++” (≥50 = +++)	190 (FLSSLTETI; listed as Homo sapiens) [compound 190]
“+++” (≥50 = +++)	262 (LLWGDLIWL; listed as Homo sapiens) [compound 262]
“+++” (≥50 = +++)	26 (ALLELAEEL; listed as Homo sapiens) [compound 26]
“++” (≥20% = ++)	209 (KLIESKHEV; listed as Homo sapiens) [compound 209]
“+++” (≥50 = +++)	101 (ILVGGGALATV; listed as Homo sapiens) [compound 101]
“+++” (≥50 = +++)	480 (ALLEDSCHYL; listed as Homo sapiens) [compound 480]
“+++” (≥50 = +++)	106 (LLYDAVHIVSV; listed as Homo sapiens) [compound 106]
“++” (≥20% = ++)	566 (VIADGGIQNV; listed as Homo sapiens) [compound 566]
“+++” (≥50 = +++)	257 (SIFSAFLSV; listed as Homo sapiens) [compound 257]
“+++” (≥50 = +++)	298 (VMITKLVEV; listed as Homo sapiens) [compound 298]
“++” (≥20% = ++)	379 (IMEGTLTRV; listed as Homo sapiens) [compound 379]
“+++” (≥50 = +++)	271 (LVYPLELYPA; listed as Homo sapiens) [compound 271]
“++” (≥20% = ++)	228 (AMQEYIAVV; listed as Homo sapiens) [compound 228]
“+++” (≥50 = +++)	610 (LLAPTPYIIGV; listed as Homo sapiens) [compound 610]
“+++” (≥50 = +++)	518 (KLNAEVACV; listed as Homo sapiens) [compound 518]
